Test results as given in doi:10.1101/2020.01.09.899237 (bioRxiv, 2020).

B4: FITC-labelled JD_(1-77) (domain or fragment)
chain: not shown
modifications: FITC-maleimide label (site not stated)

Columns and labels:
FITC-labelled JD_(1-77) [1] = target: B4; experiment: MST
FITC-labelled JD_(1-77) [2] = target: B4; experiment: fluorescence polarisation
cross-linking = target: the molecule itself; experiment: cross-linking
dynamic light scattering = target: the molecule itself; experiment: dynamic light scattering
HspA1A (human Hsp70) = HspA1A (human Hsp70) (human, UniProt P0DMV8 1-641); experiment: fluorescence polarisation
HspA1A (human Hsp70), sequence (P0DMV8 whole entry): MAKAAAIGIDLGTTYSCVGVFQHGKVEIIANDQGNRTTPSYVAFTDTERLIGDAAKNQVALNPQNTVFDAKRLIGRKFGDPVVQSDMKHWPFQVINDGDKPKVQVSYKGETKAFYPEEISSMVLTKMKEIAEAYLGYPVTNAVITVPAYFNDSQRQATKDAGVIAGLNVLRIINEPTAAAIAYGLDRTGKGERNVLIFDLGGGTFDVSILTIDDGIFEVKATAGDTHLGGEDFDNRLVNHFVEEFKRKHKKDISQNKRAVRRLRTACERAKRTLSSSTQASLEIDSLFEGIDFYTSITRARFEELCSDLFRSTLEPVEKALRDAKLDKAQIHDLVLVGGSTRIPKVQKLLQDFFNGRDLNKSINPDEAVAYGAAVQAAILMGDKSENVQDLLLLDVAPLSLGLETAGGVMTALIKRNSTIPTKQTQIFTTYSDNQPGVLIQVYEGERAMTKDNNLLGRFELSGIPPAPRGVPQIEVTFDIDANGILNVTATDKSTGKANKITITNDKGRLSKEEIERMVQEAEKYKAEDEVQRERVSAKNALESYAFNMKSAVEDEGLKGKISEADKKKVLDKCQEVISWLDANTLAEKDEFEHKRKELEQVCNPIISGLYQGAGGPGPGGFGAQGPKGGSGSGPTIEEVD

B1: DnaJB8 C-terminal domain CTD_(170-232) (domain or fragment, human, UniProt Q8NHS0 170-232, looked up)
chain: GGSSSGSSGFKSVMSSTEMINGHKVTTKRIVENGQERVEVEEDGQLKSVTVNGKEQLKWMDSK
- Kd (FITC-labelled JD_(1-77) [1]): 5360 ± 1150 nM
- Kd (FITC-labelled JD_(1-77) [2]): 542 ± 71 nM

B2: DnaJB8-mClover3 fusion protein (natural protein, human, UniProt Q8NHS0 1-232, looked up)
chain: MANYYEVLGVQASASPEDIKKAYRKLALRWHPDKNPDNKEEAEKKFKLVSEAYEVLSDSKKRSLYDRAGCDSWRAGGGASTPYHSPFDTGYTFRNPEDIFREFFGGLDPFSFEFWDSPFNSDRGGRGHGLRGAFSAGFGEFPAFMEAFSSFNMLGCSGGSHTTFSSTSFGGSSSGSSGFKSVMSSTEMINGHKVTTKRIVENGQERVEVEEDGQLKSVTVNGKEQLKWMDSK
- binding result (cross-linking): binds

B3: DnaJB8 (recombinant full-length wild type) (natural protein, human, UniProt Q8NHS0 1-232, looked up)
chain: MANYYEVLGVQASASPEDIKKAYRKLALRWHPDKNPDNKEEAEKKFKLVSEAYEVLSDSKKRSLYDRAGCDSWRAGGGASTPYHSPFDTGYTFRNPEDIFREFFGGLDPFSFEFWDSPFNSDRGGRGHGLRGAFSAGFGEFPAFMEAFSSFNMLGCSGGSHTTFSSTSFGGSSSGSSGFKSVMSSTEMINGHKVTTKRIVENGQERVEVEEDGQLKSVTVNGKEQLKWMDSK
- binding result (dynamic light scattering): binds

Binder: B4
- Kd (HspA1A (human Hsp70)): 257 ± 29 nM
